B1: TPR t1 (parent)
chain: GACCAAUCUGCCCUCAGAGCUCGAGAACAUCUUCGGAUGCAGAGGAGGCAGGCUUCGGUGGCGCGAUAGCGCCAACGUCCUCAACCUCCAAUGCAUCCCACCACAUGAUGAUGCCUGAAGAGCCUUGGUUUUUUG

Variants of: B1
Assay: polymerase ribozyme fitness, log enrichment relative to wild type (log ratio); higher = more active; in vitro selection for triplet polymerase activity
Summary of the method: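 Each subunit of a heterodimeric triplet polymerase ribozyme was represented by a PCR-built, transcribed mutant library that underwent triplicate single-round in vitro selection with frozen incubation at −7 °C. Extended constructs were recovered by gel excision, streptavidin-bead capture and RT-PCR, and Illumina sequencing of input and output libraries kept genotypes with ≥10 input reads and ≥1 read per output. Fitness is the logarithm of genotype enrichment relative to wild-type enrichment, from inverse-variance-weighted replicate averages, with a logarithm base of 2.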

Row | Variant | polymerase ribozyme fitness (log ratio)
1 | A103C G113C | -5.94
2 | C101G U133A | -1.55
3 | C101A U131G | -1.9
4 | C104A G113C | -4.17
5 | A103U U130G | -5.63
6 | C104G A119G | -6.88
7 | C102A U125C | -4.05
8 | A100C U106A | -0.525
9 | C101G G110A | -4.15
10 | C102A U109C | -6.22
11 | C104U G122A | 0.442
12 | C104A U112G C123G | -1.23
13 | C101U G128C | -2.13
14 | A103G U112C | -3.53
15 | C101A C115A | -1.02
16 | C101A C115G | -2.5
17 | C102U C123A | -2.63
18 | C102U C123U | -0.21
19 | C101A G113U | -3.79
20 | A105G U109A | -5.94
21 | C104U G128C | -1.84
22 | C101A U106C U133A | -0.867
23 | U106A C114G U133C | -2.16
24 | U106A C115G | -3.75

Row | Variant | polymerase ribozyme fitness (log ratio)
25 | C102U U132C | -1.91
26 | C102A U126G | -2.89
27 | A100C U130C | -0.362
28 | A100U U130A | -0.606
29 | A105U U112C | -1.65
30 | A103U A119G | -4.5
31 | C101A U112A | 0.611
32 | A103C C123A | -5.15
33 | C102A U112A C115A U116G C124G U133C | -3.77
34 | C104U U109G | -3.57
35 | C102U | -1.71
36 | C102A | -1.87
37 | C102G | -5.93
38 | A105C A121G | 0.5
39 | C101U A111C | 0.393
40 | C101A C115A G120C | -0.291
41 | A103G A118G C124G | -5.79
42 | A105C G117A | -5.32
43 | A105U U125A | -2.77
44 | A105G U132A | -1.89
45 | U106A C123A | 0.524
46 | A100C C102G | -4.98
47 | A100C C102U | -5.66
48 | C104U A118G | 0.462

Row | Variant | polymerase ribozyme fitness (log ratio)
49 | A105C C114A A121G | -3.08
50 | C102A G120A A121C C124U | -0.193
51 | C101G U112A | 0.152
52 | C101A A121U | -0.684
53 | C102U C114G | -4.58
54 | C102U C114A | -3.75
55 | C104G A105U A111C G122A | -7.2
56 | C101U G117U | -1.13
57 | C104U A111G | 0.178
58 | A105C G120C | -1.78
59 | A105C G120U | -2.25
60 | A105C U116C | -4.81
61 | C101G A121C | -0.583
62 | C101A C102A A119U U130A | -5.43
63 | C102G C104U | -6.12
64 | U106A G117U | -2.19
65 | A105U C115U | -1.94
66 | C101U G113A | -1.2
67 | C104U C123A U125G | 1.28
68 | A103U G110C | -7.11
69 | A103C A111U U116C | -4.99
70 | A100U U132A | -0.727
71 | A100U U132C | -0.866
72 | A105U G120U C123U | -2.19

Row | Variant | polymerase ribozyme fitness (log ratio)
73 | C102U U109G | -5.46
74 | A100U G117U | -3.66
75 | C102U G122A | -2.08
76 | C102G G120U | -6.6
77 | C101G G135U | -2.44
78 | C104U G120U G135U | -0.513
79 | A103U | -4.71
80 | A103G | -3.07
81 | A103C | -5.01
82 | C102A C124A U130A | -0.438
83 | A105C G110A | -5.26
84 | A105C G110U | -3.75
85 | A105U G127C | -2.7
86 | C101A A111C | -0.305
87 | C102A C114A | -4.17
88 | A105C G110A C115U A119G | -6.05
89 | C102U G110C | -7.27
90 | C104U U106C G120U | -0.245
91 | A100C C104U A121G | 1.96
92 | A100U U116C G128U U130A | -5.48
93 | U106A U109C | -3.27
94 | C101A U130G | -2.8
95 | C102U U130G | -2.52
96 | A100U G110A | -1.52

Row | Variant | polymerase ribozyme fitness (log ratio)
97 | C104U C115U | -0.334
98 | U106A C115U G127U | -1.18
99 | C101A C115A A121C U125A | -0.732
100 | A103U A118G | -5.56
101 | A103U A118U | -4.32
102 | C104A C123G | -0.779
103 | C104A C123A | -1.7
104 | A105C U112C | 0.139
105 | C101U C102G | -6.19
106 | A105U U133A | -1.78
107 | A105G G113U | -5.05
108 | C104U G127C | -1.03
109 | C102A G128C U132G G135U | -3.41
110 | C102A C124G | 0.0453
111 | U106A C114A | -1.93
112 | A103U G127U U129G | -3.98
113 | A105C G128C | -3.71
114 | C104U G117U | -0.481
115 | C101A G135U | -2.11
116 | C104U C123G | 1.92
117 | C101A C114G | -3.4
118 | C104A U130A | -2.46
119 | C102U A119U C123A U126A | -2.22
120 | U106A G128C | -2.95

Row | Variant | polymerase ribozyme fitness (log ratio)
121 | C101A C115G U132C | -3.46
122 | A103U C114U | -4.99
123 | C104A A118U U125G U130A | -3.67
124 | C101U G120U | -1.36
125 | C101U G120C | -0.354
126 | C102U C124G | 0.125
127 | C102U C124A | -0.401
128 | C101A G110U | -3.04
129 | C104A C114A | -4.74
130 | C102U G120A | -1.2
131 | A105G A121C | -0.542
132 | A103G C124U | -3.1
133 | A105C C115U | -4.02
134 | C104A G127A | -3.1
135 | C101A G110U A119G | -2.89
136 | C101U C104G U109G | -6.55
137 | C101A G107A | -5.93
138 | C104A U106A | -2.51
139 | U106A | 0.145
140 | C104U A105C U131C | -2.36
141 | C102A G110A | -4.38
142 | C101G G120U U129A | -3.12
143 | A105C U133A | -2.08
144 | C101U U126G | -2.48

Row | Variant | polymerase ribozyme fitness (log ratio)
145 | A103U G120A C123U | -4.53
146 | C104A A119U | -2.35
147 | A105C U130C | -1.55
148 | A103C G120U | -4.69
149 | A103C G120A | -3.52
150 | C102A U106G | -4.52
151 | A100U G120U | -1.23
152 | A105U G113C | -5.86
153 | C101A G117C A121U | -4.18
154 | U106A G135U | -0.228
155 | C104U U129C | -0.415
156 | A103U A111G | -3.31
157 | C102U U125G | -1.4
158 | C104A U133A | -1.68
159 | C101A A105G | -3.13
160 | C102G U106C C114G C123A | -6.08
161 | C101A U109A | -5.05
162 | C102A A111G C115A A118U | -4.83
163 | C102A U106A C115A U129A | -4.5
164 | A100U G113U C124U | -3.92
165 | C104U G120U | -0.787
166 | C104G C124U | -6.14
167 | C101G U129G | -2.29
